Experimental data as given in PMC11199634 (Nature Communications, 2024).

Biological target: T1, SDS22 (tag-free, purified) (human, UniProt Q15435 1-360)
T1 construct: SDS22 (PPP1R7), human, wild type; also called SDS22-WT; untagged SDS22; source: HEK293T, transiently transfected; EGFP-SDS22 purified on EGFP-trap beads, tag-free after TEV protease
T1 sequence (looked up): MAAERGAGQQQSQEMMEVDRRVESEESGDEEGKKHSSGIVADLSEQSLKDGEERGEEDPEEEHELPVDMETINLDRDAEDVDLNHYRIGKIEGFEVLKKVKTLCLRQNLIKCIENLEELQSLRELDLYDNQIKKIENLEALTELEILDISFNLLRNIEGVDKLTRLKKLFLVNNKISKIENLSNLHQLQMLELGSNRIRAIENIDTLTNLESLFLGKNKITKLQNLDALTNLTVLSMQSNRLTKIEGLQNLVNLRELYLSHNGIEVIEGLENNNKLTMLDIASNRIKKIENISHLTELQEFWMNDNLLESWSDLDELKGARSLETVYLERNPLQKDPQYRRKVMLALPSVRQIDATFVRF
Assay: ITC; 5 μM SDS22 in the cell titrated with 50 μM His-I3 (20 injections), 22 °C, MicroCal iTC200; binding curves not saturated
Details: both partners purified

Kd: 7.6 µM
B1: His-I3 (natural protein, human, UniProt O60927 1-126, looked up)
chain: MAEAGAGLSETVTETTVTVTTEPENRSLTIKLRKRKPEKKVEWTSDTVDNEHMGRRSSKCCCIYEKPRAFGESSTESDEEEEEGCGHTHCVRGHRKGRRRATLGPTPTTPPQPPDPSQPPPGPMQH
notes: source: E. coli BL21 (pET16b), purified (Ni2+-Sepharose)
